Source: the DeepSol protein solubility set

assay: soluble on expression in E. coli; label from the status in PepcDB or PDB records

| Sequence | soluble on expression in E. coli |
| --- | --- |
| MIGSYALSILDEAEVLVDLLTGGAPKVNKIFLITSSRRKRPDYYGELESCLKEMDLNLEIITVDDVSNFFEVYLILEKICELEGTPKWVNVGSGHGIMLSALAVHAFIKDALLVAFDKEEKKVIVTDIKKLKRIKIYQKRYFELISELGEGEKTITELSKIFNLSRSAMSRRLKHMETLNIVVRKGTGRSNIPYVFKLTELGRKLL | soluble |
| YKIEKEQRLGLIPQREGNYEKNKNVLESATVKINYYSSKATSGQAGAAASAAFAKNNNTSDNTQQNQTSSVEAKSVNVTKHSFVQALKKVGFSGSNPLHFNMKLGNSSLSANGVDYYNAVKQALTELG | not soluble |
| MAQFLEKATSALSEAKESVTSTAESVTASLTDAEKTVNQTARSTLTDAETTVAASVETVKTEAAAAPDKASGVSTQAKDAVDKAFSRGIEGAKSLLQTFEAKSSDISSKLVGGVTNLVSGASSSTVANRDLPVSTDNQPLLASGEKTPWWKNCCGVLDLFKKDT | soluble |
| MAGDPMVMRLSKIYGKQIYTTKGKYVGYVDEVIIDIDEGRGEVVLLALPGERVGVPYERVTAVGDIILVEATTEKKRISQEGLEHHHHHH | not soluble |
| NPNPISIPIDLSQAGSVVEKEVKIEESWSYHLILQFAVHDRKEDGGLDGKRVWKFLGFNSYDPRDGKQVGYVDYRLAKSELGDLIDETYDCDGTVVPIKITIHQINQDNTKKLIADNLYMTKGNGSGAYTRDITTISLDKGKYIFRIENIEAFSEMIGRKVDFTIYINKRDK | soluble |
| MILNIRDHYLPREYWKYISLHRGPIYGYKLEAYIGADNCIHYKEIPKNPDDTLRENETIYI | not soluble |
| MAFICPEEIEAYAEEHSSELHPILEELVEFTYKNTDLPQMMVGRAEGNFLKMLVEISGAKRVLEIGTFTGFSALMMAQGLPEDGKLTTIEVNPEYAQMAKSFIERAPWGKKIEVIVGDARKVLEEFKKESFDFIFIDADKSSYPYYYEKCLELLKKGRLMAIDNALWEGKVLEPDDNRSKAIARMNEMIKEDPRVEKVLLTVRDGIFLVRKI | soluble |
| MQTPSKKYVVDIWSDFVCPWCWIAKRRFENALNRSGMQDDVQVNVRAYRLAANQAPEPMIGALKRKLGNPASADSMMSTVSKYGRADGLDYRFDTMMFGDTADAHILVKAVEDTAVKKRLVEALYEQSTSHGRSLFDRSSLEAIAREVGVSDESIQLAWSSVELRNEMKDDESFAAQLGSGVPLFVFDSSFSVSGAQPDAVFLEALNKMVANSNPEDSSMMGQVCSIDGCKVLEHHHHHH | not soluble |
| MGSDKIHHHHHHMTPIPKTSVPKTSVPTTPEPIRTNIPTALGKCLSLCLCLLLPLTQAWAETPANADVTASDNAIIAGHEFSHDSSEFKTPRRYMVSLPEGYHGNTRHYPVLYVVDADFQFQHVSALALHLARMGKIAPMIVVGIANQGQSDYLYTTTWKSDEGEAFGGADTFYRYLAKELIPTIDKQFRTNPHKALAGYSLGGLFTLYAMTQANSPFDAYLAMSPSVWYDKMHYIELLKQRLQKSPIEAPLFLTLANEQEMGVDELVTALKGYDAQKIHWQFKQYPSENHFTTALPALNDGLLFLSPDYGLDGSDMLALGDYRAVLDYFAKRKANWAGFHIEWLQAYQFGKYLFWSKQLDKLDGILAAVKQEFPDSLTIVTVQVAKGFNVKGDGARAKALLDSVAKEGEASPYWHREMSLYYQSQGDEANAQRHQQKALALATQYRLNTWELWELQ | not soluble |
| HMSNFTGLKVLVMDENGVSRMVTKGLLVHLGCEVTTVSSNEECLRVVSHEHKVVFMDVCMPGVENYQIALRIHEKFTKQRHQRPLLVALSGNTDKSTKEKCMSFGLDGVLLKPVSLDNIRDVLSDLLEPRVLYEGM | soluble |
| MIYTVTLNPSIDYVVQVNSLDLGAVNRAEKDMKFPGGKGINVSRVLHRLGVENVALGFTGGFTGRFIKDVLQTEGVITNFVQVDGDSRINVKIKGQEETELNGQGPSVTNEQFEQLMKQIESMQKGDYVVLAGSVPASIPTTFYESIAAFGAEKGIRVVVDASGSALQHVVKNKPFLIKPNHHELGELFGVEISTAEDILPYGRKLIEQGVEHVIVSMAGDGALLFTAEGIYEATVPKGVVINSVGAGDSLVAGFVGKYEQTKDIEKAFQYGVATGSATAFSADLCEKEKVEELLSQVIVTKR | not soluble |
| MIPKAFDGVKLLQFSDLHLGHYDSLERFYRIINQINKLQPDIVVFTGDLLHEANRYPHTEEVADALASIRAPLGKFSVYGNHDHGGYGTDIYRRLMERAGFRVLVNEHALVRRGQERIAVAGGDDMMLGQPDWAKMTSGIPASTYTIALVHEPDGALETCRYPIHVQLSGHSHGGQIQLPFIGPLITPPLSERYYEGFYHVGGLVLYVNRGLGTTRVPLRFFAPPELTVFSLIHRLEHHHHHH | not soluble |
| PQPGAARGLGRVAYADARQHRDILQSLVRALNGSRRRIWLATPYFLPTWKVRRALRKAAQRGVEVRLLLAGRLTDHAPVRYAGQRYYPRLLRAGVRIHEYQPRFLHLKMVMVDDWVSVGSCNFDHWNLRFNLDANLEALDPDFTNEAAASLLADFADSREVTLAMWRARPLWMR | not soluble |
| MAHHHHHHMVLTLDCSQAVQNTIRELQDTRAFTDDDGAETIATTWFSDVGLCITGYTRDLVAAINSQGTPSVVVVIQNLHTFADRQRQKVLKIHQRYFNSVLSDTTKVVPVVSQDDYTKILRHMQVSKIRTLKWRDQHPYMAVEEKAYNPETQELTITGHLRGMPLSATQLVHLTNHGTFQVCKIEEVRKGDERVLIETSEAAQRESLQQVQANSTLEDDGFPTDADVLYHQEIAGTHKIRVPAGVSSDQAAWYDTEENIVKDSAPKHQHITMDDEDAFAGDAMSYRTTQTDVDFLKAEDVVRLERMTDEERILEMEKLKELSEEETWNPDMVDTPVNIPARQRFAKYRGMRSFHTGRWDPAENLPPQYAYIYKLQGYSRIRESAIDACEGGMAEVGMCIAITLVNVPQSVWNACERCLLIASGQLQHEQKWSVLHFQVQRASELDEPIKSKTPMLAHIGFRKFYVSPLFSDISSGDRSKFARFFHEGDRFRMATFFGPISYNPCPLLLFQVPSLEEQAEGNPLRLACFGGSLPPNPETLLLKRAVLSGRVAVIHKKQVVVKYMFFNDEDIKWFQPVDLYTKFGRRGKITKPVGTHGLFKAVLNDQIMQHDVVCMDLFKRVFPKWTTVAFSMSDVPAGHTENEEER | not soluble |
| MGSDKIHHHHHHMEWIDRFIELLFYGEKEEAYKLKFDHFPRRLYKYEVIDEKRLLALKNNKIWFANPDKLNDPFDSCGVFFDKKVLCNYTNKKSIDEYIDGLKRNIKVCCFSEELNSMPMWAHYANNHTGICIEYDFSKLNYMSEFSKYIFPIRYETEKYDITKFLERIFKEEAEERMYLLFFLMQIKHVSWSYEKEWRIILKAYEDKNEGIVCPIKPEGIYLGLNCSEENKEKLKRIVVENIKCPIYEIEKTEGKLFEFKTKNVSEKNYK | not soluble |
| MGSDKIHHHHHHMVENYNFSGVPMRLDDLTYMNPWWEGREDYHVRRWKEQRLHWKPGWLEKLSLKPFSLNFVLGPRQVGKTTGIKLLIQELLKDNPPESILYINVKVLPGHRELLNLLREFQELKEKEGVKTGYIFLDEVTSLEGWWRGVKPLIDAGLLKNDVVTVTGSSSLGVRRDIELFPGRRGSGKTIEVMPLSFPEYVEVMGLKKPELYREKVLKLFEDYLTTGGFPTSINGLPMEDLLGAYIGEIVRFGKSLEIAKETLSALIRSAPSATSFRALAGITSGYSYKVVQDYIELFTELYVLGIAYLKQGNQVLYKREKKFFFRDPLLARLFALWSGTELKEDALYEWVVQEHLYRRFGEVYYYRNSYEIDAIAGDLKVEVKAGKTHRRYPKNVRVLEKEDVPFFLLELTHESTSRF | not soluble |
| MAHHHHHHMARIISASELEKAADALARGNLVAIPTETVYGLGGNALNKEAVEKIFIVKGRPLTDPLICHVSDVEKAMDLWDVHADPEAVELARVLGTAIWPGPLTIVLRANPLLPNSVTGGSGFVGARIPRHEITLRLLQLVNFPVAAPSANTFGHVSPTTADHVLKDLGPKDSSLLIVDGGPCDIGIESTVVKVNNVESVEILRRGGVTLTEVLRALGDKFHPLITIRDTRLRHLSPEMAMDGPGQLLTHYSPNVPSRLLTPSSFTTNLPMDPEGALVEFSSNSSVAAPTEVLLRHTVIIDFGGKLQCLKPGCLAYRDLSVNAQVREACFAVFDALRWTETIPGAEVVLFPLVSGWPHASVDTDLLAAVEDRLFRAASGKVARIRMQSRSV | not soluble |
| MAHHHHHHMAQRVAIPDDCVYEGYGNLYRGDAEVTPPQPIVGARGGNGVLYGTIDSEEALRQLRTALRVDVHPQLKALVQEKKLDEVASSPASLPWLVCRPNALPLRTLPSSFSSGTRYEIERMKSQCRFLRDWLMCHETPEERVEAREFLRTAQRLLQKESVEELLGRTENLLQQLENWPAVVEKARPHIAEWNNDKSLTELREFVGDVLGTDEVCARLSKLTCRFSLLAPLLEEAAFRSAALEEMEQWSSEATVSSLRSLRASIHDWELRVAKDQQNVLDSSQLLLERIAAVRNKRRESAGDLT | soluble |
| MSLIFSKIRGNFQDLKDGKISVKQGLITKSDAIELFNIKNWKDYLKLFSIASEVRDFFKNEIEITSTVHVTNICSVTPKCAYCGFAAGTSSEGYVEPFRSNDEQIKSSAAAVENSGIKRVSCSSGHGYSGKEVIRALKAVKSASNLEVLVNAGADITEDCISELKKYNIDTICCNLETTNKSVFNKVKPGENLDDRISVCKMVKKHGIELSSGLLIGIGESYEDRAEHLFFLKELDVEEIPVMGFNPYKDTPMEQCPKCSAIEQAKTIAIARLLFPNIRITSPTPTMGPELAQFALLGGASNIATVIPDNHPMNIKGVGNPKTGNLNDVICMMKELGLTPKLNEGHHHHHH | soluble |
| MFNDLESKLQSLLERNITSVLELENWLFDELRVNAEIEEKITSSLIATYRDTDNRNMRDLHMYNQNTIQPLLKRYNAKFDQKFIECPFSNLLDERKYEFMKKARFVKSKMFNEKNIALSIKGQECITKYREIMSNITINWEGEQKTYAHVKAKLDNPNRAIRKKAWYALCEARSVVKPEVDRIMNELIQLRNEIALNAGFNNYSEYAFKQKNRDYSIDDCYKLHESIEKYVVPIWKQLGSISKKNLDVKTYRPWDLSPCNLPKAPFQNAINLLDGVEEMFRTTDLYFYEKFIHIRKAGCIDVEERENKAAGAICFTLPHSKEVFVYSNFSPSFYAINALIHEVGHAFHFYKQFKNDSSMQERYLREEVAELYSLSLELLVMDKLNVFYKQEDEYKEVQRVQIYRALSLLMSSIAGDVFQHWIYENPNHTPEERDKKYAEICKRYQYSTVDIAGLEDEIGASWIESFHYVQFPFYKIEYAIAQIGAMQLFQIYWEDPEKAIDFFKEGASADWNLSIQEIYEKTGVTFDFSEERIESTASVILDLINELK | not soluble |
| MRYPIMNNFFKIHDNLLRNLSPSLRRGLMDEIDWNDRLIGIKGARGMGKTTFLLDYARENFGIGNRKCLYINLNQLYFTTESLVNFAGEFVKQGGEVLLLDQVFKYPNWSIELRQCMELYPDLRIVFTGSTVMRLKEENPELNGLVTSYVLNGFSFREFLNLKTGLSLQPYSFDEIVSNHEQIAPRILEQVNPLDWFQDYLHHGYYPIFLEDKNYSESLLKTLNMTLEVDVLFIRQIEQRFLHKLRKLLYLLGQRAPGSLNISSIAKEVDTSRTTITNYLKYLSEARLIKELHREEETGAKKPAMIYLDNTNVGYVIQPEPLNYIDVLKTFFLNQVKSRNEVCLGSRSQIAFCVNRQYQFCIDEKMSRRYRPDRYYAIQNMRSGTRNMIPLWLFGFLY | not soluble |
| LITFRCRSYANVTMFGDIALEMIKMMGHSGTVPGSISAQDVPDALSKLTSALSAKNAAEENLPTDVDVDEKEEQVEPAVSLGRRAFPLIELLKSAIKEECEVMWD | not soluble |
